Test results: publication PMC4982705 (Biochemical pharmacology, 2016)

Molecular target: the molecule itself
Assay: SEC

B1: wildtype human SULT1B1 (enzyme)
chain: not shown
stoichiometry N: 2
